# In paper PMC2978110, “EBP1 Is a Novel E2F Target Gene Regulated by Transforming Growth Factor-β”:
# Changes are numbered by the printed parent chain. Names may count otherwise.
# B1: EBP1 -113* (dsDNA)
# DNA 1: TAGTTCGAAGGCCCTCGAGAAAAAATAGAGTCTGG
# DNA 2: GCAGACTCTATTTTTTCTCGAGGGCCTTCGAACTA
# B2: EBP1 -136 probe (-136 to -100) (dsDNA)
# DNA 1: TAGTTCGAAGGCCCTCGAGAGCGGCTAGAGTCTGG
# DNA 2: GCAGACTCTAGCCGCTCTCGAGGGCCTTCGAACTA
# B3: DHFR E2F site mutant (dsDNA)
# DNA 1: CTAGAGCAATTTAAAAACAAACTTGGATC
# DNA 2: GATCCAAGTTTGTTTTTAAATTGCTCTAG
# B4: EBP1 -166 (-158*) (dsDNA)
# DNA 1: TTAGGAAAAAAAGAGGCAGGCTGGGAATTGTAGTTCGAAGGCCCTCGAGAGCGGCTAGAGTC
# DNA 2: GACTCTAGCCGCTCTCGAGGGCCTTCGAACTACAATTCCCAGCCTGCCTCTTTTTTTCCTAA
# B5: EBP1 -166 (both*) (dsDNA)
# DNA 1: B4 DNA 1 with G51A, C52A, G53A, G54A, C55A
# DNA 2: B4 DNA 2 with G8T, C9T, C10T, G11T, C12T
# B6: EBP1 -166 wt (-166 to -104) (dsDNA)
# DNA 1: B4 DNA 1 with A7G, A8C, A9G, A10C, A11G
# DNA 2: B4 DNA 2 with T52C, T53G, T54C, T55G, T56C
# B7: EBP1 -168 probe (-168 to -130) (dsDNA)
# DNA 1: GCTTAGGAGCGCGAGAGGCAGGCTGGGAATTGTAGTTC
# DNA 2: GAACTACAATTCCCAGCCTGCCTCTCGCGCTCCTAAGC
# B8: EBP1 -155 probe (-155 to -120) (dsDNA)
# DNA 1: GAGCTTCGAACTACAATTCCCAGCCTGCCTCTCGCGCTG
# DNA 2: CAGCGCGAGAGGCAGGCTGGGAATTGTAGTTCGAAGCTC
# B9: N-myc E2F site (dsDNA)
# DNA 1: GATCCTTTTGGCGCGAAAGGCTTAGATC
# DNA 2: GATCTAAGCCTTTCGCGCCAAAAGGATC
# B10: EBP1 -166 (-113*) (dsDNA)
# DNA 1: TTAGGAGCGCGAGAGGCAGGCTGGGAATTGTAGTTCGAAGGCCCTCGAGAAAAAATAGAGTC
# DNA 2: GACTCTATTTTTTCTCGAGGGCCTTCGAACTACAATTCCCAGCCTGCCTCTCGCGCTCCTAA
# B11: DHFR E2F site (dsDNA)
# DNA 1: CTAGAGCAATTTCGCGCCAAACTTGGATC
# DNA 2: GATCCAAGTTTGGCGCGAAATTGCTCTAG
# B12: TIMELESS E2F site (dsDNA)
# DNA 1: CAGAAAATTCATAGCGCTGTGATTTTTAGATC
# DNA 2: GATCTAAAAATCACAGCGCTATGAATTTTCTG
# B13: TIMELESS E2F site mutant (dsDNA)
# DNA 1: B12 DNA 1 with G14A, C15A, G16A, C17A
# DNA 2: B12 DNA 2 with G16T, C17T, G18T, C19T
# B14: EBP1 -158* (dsDNA)
# DNA 1: GCTTAGGAAAAAAAGAGGCAGGCTGGGAATTGTAGTTC
# DNA 2: GAACTACAATTCCCAGCCTGCCTCTTTTTTTCCTAAGC
# Key:
# [1] = target: T1, GST-E2F1 (UniProt Q01094 1-437); experiment: EMSA; EMSA as in ref 34 (buffer, pH, temperature not given); 1.8 ug GST-E2F1 per reaction, 24 ng/ul ds mutant adenovirus E2 E2F-site oligo as nonspecific competitor; conditions: protein: recombinant, label: 32P
# T1 sequence (Q01094 whole entry): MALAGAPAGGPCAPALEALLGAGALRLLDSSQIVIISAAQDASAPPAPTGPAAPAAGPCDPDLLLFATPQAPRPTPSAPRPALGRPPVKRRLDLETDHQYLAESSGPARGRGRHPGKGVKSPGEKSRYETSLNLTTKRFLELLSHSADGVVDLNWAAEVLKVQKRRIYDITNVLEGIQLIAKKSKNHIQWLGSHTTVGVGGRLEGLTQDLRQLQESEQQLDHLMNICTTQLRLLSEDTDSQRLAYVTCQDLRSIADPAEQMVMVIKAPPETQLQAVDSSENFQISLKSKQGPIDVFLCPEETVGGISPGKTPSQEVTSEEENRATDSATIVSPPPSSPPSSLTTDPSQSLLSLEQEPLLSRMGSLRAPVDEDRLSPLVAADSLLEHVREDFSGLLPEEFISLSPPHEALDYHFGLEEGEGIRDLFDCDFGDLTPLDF
# [2] = target: T1, GST-E2F1; experiment: competition; 100-fold excess vs EBP1 -158 and -113 probes; EMSA as in ref 34 (buffer, pH, temperature not given); 1.8 ug GST-E2F1 per reaction, 24 ng/ul ds mutant adenovirus E2 E2F-site oligo as nonspecific competitor; conditions: protein: recombinant, blunt
# [3] = target: T1, GST-E2F1; experiment: EMSA; additional low-mobility complex; EMSA as in ref 34 (buffer, pH, temperature not given); 1.8 ug GST-E2F1 per reaction, 24 ng/ul ds mutant adenovirus E2 E2F-site oligo as nonspecific competitor; conditions: protein: recombinant; label: 32P; blunt
# [4] = target: T1, GST-E2F1; experiment: competition; 100-fold excess vs EBP1 -158 and -113 probes; substantially reduced; EMSA as in ref 34 (buffer, pH, temperature not given); 1.8 ug GST-E2F1 per reaction, 24 ng/ul ds mutant adenovirus E2 E2F-site oligo as nonspecific competitor; conditions: protein: recombinant; blunt
# [5] = terminal G:G mismatch as printed
binder,measurement,setting,value
B1,binding result,[1]; [5],no binding
B2,binding result,[1]; [5],binds
B3,binding result,[2],no binding
B4,binding result,[1]; blunt,binds
B5,binding result,[1]; blunt,no binding
B6,binding result,[3],binds
B7,binding result,[1]; blunt,binds
B8,binding result,[1]; blunt,no binding
B9,binding result,[2],binds
B10,binding result,[1]; blunt,binds
B11,binding result,[2]; label: 32P as probe,binds
B12,binding result,[4],binds
B13,binding result,[2],no binding
B14,binding result,[1]; blunt,no binding
